# Test results taken from PMC9389230, “Connective tissue growth factor-targeting DNA aptamer suppresses pannus formation as diagnostics and therapeutics for rheumatoid arthritis”.
# Experiments:
# murine CTGF (SPR) = murine CTGF (SPR) (mouse, UniProt P29268 26-348); experiment: SPR; SPR: PBS running buffer, CTGF on CM5 chip, aptamer 9.375-600 nM, 10 ul/min (SA chip with biotinylated aptamer for cytokines and CTGF deletion mutants); dot blot: nitrocellulose, 10% BSA block, 1 uM biotinylated aptamer, room temperature; pH not stated; settings: protein: recombinant; label: biotin or Cy5 depending on assay
# Chain of murine CTGF (SPR) (P29268 26-348): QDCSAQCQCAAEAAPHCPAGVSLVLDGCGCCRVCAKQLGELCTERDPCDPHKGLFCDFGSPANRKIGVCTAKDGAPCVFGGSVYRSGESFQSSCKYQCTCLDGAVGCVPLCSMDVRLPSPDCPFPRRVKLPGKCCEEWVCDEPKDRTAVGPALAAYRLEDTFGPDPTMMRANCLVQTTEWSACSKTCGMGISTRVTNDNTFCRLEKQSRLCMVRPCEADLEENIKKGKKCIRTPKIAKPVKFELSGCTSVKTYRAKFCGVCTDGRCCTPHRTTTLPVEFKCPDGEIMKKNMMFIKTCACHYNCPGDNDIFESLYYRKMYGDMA
# CTGF (CCN2) = CTGF (CCN2) (UniProt P29279 27-349); experiment: as above; settings: protein: commercial; label: biotin or Cy5 depending on assay
# Chain of CTGF (CCN2) (P29279 27-349): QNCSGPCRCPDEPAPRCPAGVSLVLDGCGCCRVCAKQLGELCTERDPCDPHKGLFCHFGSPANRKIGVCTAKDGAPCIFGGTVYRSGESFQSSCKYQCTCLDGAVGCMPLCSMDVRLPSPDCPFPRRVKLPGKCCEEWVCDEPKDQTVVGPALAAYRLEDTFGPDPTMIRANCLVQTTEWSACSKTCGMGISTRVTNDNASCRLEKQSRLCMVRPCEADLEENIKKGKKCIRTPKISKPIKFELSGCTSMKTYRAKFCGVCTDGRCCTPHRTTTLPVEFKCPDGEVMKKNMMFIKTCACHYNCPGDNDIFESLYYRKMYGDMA
binder,measurement,setting,value
"AGGCCGGGAGGGTACCCATTGATGGTGTGATGACTGCCT (ssDNA, 3' PEG (high molecular mass)) [AptW2-1-39-PEG]",binding result,murine CTGF (SPR),binds
same,Kd,CTGF (CCN2),7.86 nM
